Experimental data from US20200291105A1 (published 2020).
Read-outs that look alike come from different tables or passages of the source.

How the values were obtained:
mouse IL-25 [1] = target: T1, mouse IL-25 (mouse, UniProt Q8VHH8 17-169); assay: SPR
T1 chain: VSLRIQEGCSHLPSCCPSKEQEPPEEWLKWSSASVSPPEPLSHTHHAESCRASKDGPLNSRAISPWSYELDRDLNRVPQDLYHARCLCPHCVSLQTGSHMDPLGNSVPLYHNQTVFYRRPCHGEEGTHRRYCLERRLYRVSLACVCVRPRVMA

mouse IL-25 [2] = target: T1, mouse IL-25
[3] = target: T2, recombinant human IL-25 (R&D Systems) (human, UniProt Q9H293 33-177)
T2 chain: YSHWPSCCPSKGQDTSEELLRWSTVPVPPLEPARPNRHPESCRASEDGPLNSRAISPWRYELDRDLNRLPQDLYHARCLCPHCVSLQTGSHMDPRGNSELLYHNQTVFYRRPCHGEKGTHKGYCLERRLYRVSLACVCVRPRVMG

hABM125.9 = assay: SPR
hABM125.10 = assay: SPR

B1: ABM125 (antibody, V domains shown)
VH: QVTLKVSGPGILQPSQTLSLTCSFSGFSLNTSGMGVGWIRQPSGKGLEWLAHIWWDDVKRYNPALKSRLTISKDTSGSQVFLKIASVDTADTATYYCARTLPHFFDYWGQGTTLTVSS
VL: DIQMTQSPAIMSASPGEKVTISCSASSSVSYMYWYQQKSGSSPKPWIYRTSNLASGVPARFSGSGSGTSYSLTISSMEAEDAATYYCKQYHSYPPTWTFGGGTKLEIKR
Mouse IL-25 [1]
  Kd: 0.0073 nM

B2: ABM109.2 (antibody, V domains shown)
VH: QVQLVQSGAEVKKPGASVKVSCKASGYTFSSYWIEWVRQAPGQGLEWIGQILPGIGSTNYNEKFKGRVTITADTSTSTVYMELSSLRSEDTAVYYCARGYGNYGDYWGQGTTVTVSS
VL: DIVLTQSPASLAVSPGQRATITCRASESVDSYGNSFMHWYQQKPGQPPKLLIYRASNLESGVPARFSGSGSGTDFTLTINPVEAQDTANYYCQQSNEDPLTFGAGTKLELKR
Mouse IL-25 [2]
  Kd: 0.028 nM

B3: ABM 109 (antibody, V domains shown)
VH: EVKVVESGADLMKPGASVKISCKATGYTFSSYWIEWVKQRPGHGLEWIGQILPGIGSTNYNEKFKGKATFTADTSSNTAYMQLSSLTSEDSAVYYCARGYGNYGDYWGQGTTVTVSS
VL: DIVLTQSPASLAVSLGQRATISCRASESVDSYGNSFMHWYQQKPGQPPKLLIYRASNLESGIPARFSGSGSRTDFTLTINPVEADDVATYYCQQSNEDPLTFGAGTKLELKR
[3]
  Kd: 0.004 nM

B4: mouse IL-25 (NS0) (ligand)
chain: VSLRIQEGCSHLPSCCPSKEQEPPEEWLKWSSASVSPPEPLSHTHHAESCRASKDGPLNSRAISPWSYELDRDLNRVPQDLYHARCLCPHCVSLQTGSHMDPLGNSVPLYHNQTVFYRRPCHGEEGTHRRYCLERRLYRVSLACVCVRPRVMA
hABM125.9
  Kd: 0.733 nM
hABM125.10
  Kd: 1.06 nM
